Legend:
Assay in all cases: affinity purification with mass spectrometry; tandem affinity purification of TAP-tagged Epl1 or Ada2 from lysates of TRA1 or tra1 Q3 strains (260 mg or 170 mg protein): IgG beads 2 h at 4°, IPP150 (10 mM Tris-HCl pH 8.0, 150 mM NaCl), TEV cleavage, calmodulin beads, EGTA elution; SDS-PAGE, Coomassie Brilliant Blue; bands identified by MALDI mass spectrometry or predicted from mass; band intensity by ImageJ
[1] = molecular target: TAP-tagged Ada2 (S. cerevisiae) (UniProt Q02336)
[2] = molecular target: TAP-tagged Epl1 (S. cerevisiae) (UniProt P43572)
TAP-tagged Epl1 (S. cerevisiae), sequence (P43572 whole entry): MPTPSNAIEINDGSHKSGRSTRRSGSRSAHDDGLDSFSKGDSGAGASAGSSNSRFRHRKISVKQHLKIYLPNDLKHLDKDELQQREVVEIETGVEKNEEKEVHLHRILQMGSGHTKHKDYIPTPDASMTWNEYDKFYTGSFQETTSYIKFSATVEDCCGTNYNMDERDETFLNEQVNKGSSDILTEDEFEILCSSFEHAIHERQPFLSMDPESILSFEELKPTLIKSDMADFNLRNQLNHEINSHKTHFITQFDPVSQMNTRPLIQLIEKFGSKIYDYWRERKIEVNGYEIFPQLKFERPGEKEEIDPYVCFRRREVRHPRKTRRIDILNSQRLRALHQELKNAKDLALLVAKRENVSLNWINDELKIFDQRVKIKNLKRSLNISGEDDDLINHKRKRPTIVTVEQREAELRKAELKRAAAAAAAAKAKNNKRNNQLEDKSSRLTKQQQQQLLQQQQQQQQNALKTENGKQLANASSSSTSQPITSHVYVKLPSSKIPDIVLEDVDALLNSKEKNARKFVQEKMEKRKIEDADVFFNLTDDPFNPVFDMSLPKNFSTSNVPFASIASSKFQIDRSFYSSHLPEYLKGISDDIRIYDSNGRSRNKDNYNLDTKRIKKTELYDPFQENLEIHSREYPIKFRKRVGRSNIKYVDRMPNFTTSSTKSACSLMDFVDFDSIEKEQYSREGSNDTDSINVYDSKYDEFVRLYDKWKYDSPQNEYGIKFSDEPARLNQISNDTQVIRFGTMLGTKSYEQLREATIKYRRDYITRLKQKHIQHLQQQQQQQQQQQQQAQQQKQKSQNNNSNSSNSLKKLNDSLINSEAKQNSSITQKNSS

TAP-tagged Ada2 = molecular target: T1, TAP-tagged Ada2 (S. cerevisiae, UniProt Q02336 1-434); conditions: partners not purified
T1 construct: Ada2, SAGA component, S. cerevisiae; TAP-tagged ADA2; Held on IgG beads, released with TEV protease, then held on calmodulin beads, so part of the TAP tag is cut off during the purification; also called TAP-Ada2; TAP-ADA2; source: S. cerevisiae strain with TAP-tagged ADA2 (bought: Open Biosystems YSC1178-202230655; crossed with CY6582 for the tra1 Q3 strain CY7042), in lysate of cells ground in …
T1 sequence (looked up): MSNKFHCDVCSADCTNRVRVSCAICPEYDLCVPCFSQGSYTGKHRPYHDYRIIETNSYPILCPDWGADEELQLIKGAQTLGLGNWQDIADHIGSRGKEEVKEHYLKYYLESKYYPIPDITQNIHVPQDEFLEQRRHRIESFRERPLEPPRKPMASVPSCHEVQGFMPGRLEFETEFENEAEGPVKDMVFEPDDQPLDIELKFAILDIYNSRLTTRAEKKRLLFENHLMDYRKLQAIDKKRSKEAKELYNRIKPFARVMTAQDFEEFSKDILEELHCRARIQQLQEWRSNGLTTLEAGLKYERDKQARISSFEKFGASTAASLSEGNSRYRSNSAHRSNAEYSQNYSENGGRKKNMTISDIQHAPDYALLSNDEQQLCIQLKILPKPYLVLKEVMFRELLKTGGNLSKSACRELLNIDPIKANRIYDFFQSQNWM

In the case of “Tra1 Q3 (R3389Q, R3390Q, R3456Q), P38811 1-3744”, the fold decrease against wild-type Tra1 [1] is reported as 6.5 fold and the fold decrease against wild-type Tra1 [2] is reported as 6.7 fold.

B1: full length Spt20 (natural protein, UniProt P50875 1-604, looked up)
chain: MSANSPTGNDPHVFGIPVNATPSNMGSPGSPVNVPPPMNPAVANVNHPVMRTNSNSNANEGTRTLTREQIQQLQQRQRLLLQQRLLEQQRKQQALQNYEAQFYQMLMTLNKRPKRLYNFVEDADSILKKYEQYLHSFEFHIYENNYKICAPANSRLQQQQKQPELTSDGLILTKNNETLKEFLEYVARGRIPDAIMEVLRDCNIQFYEGNLILQVYDHTNTVDVTPKENKPNLNSSSSPSNNNSTQDNSKIQQPSEPNSGVANTGANTANKKASFKRPRVYRTLLKPNDLTTYYDMMSYADNARFSDSIYQQFESEILTLTKRNLSLSVPLNPYEHRDMLEETAFSEPHWDSEKKSFIHEHRAESTREGTKGVVGHIEERDEFPQHSSNYEQLMLIMNERTTTITNSTFAVSLTKNAMEIASSSSNGVRGASSSTSNSASNTRNNSLANGNQVALAAAAAAAAVGSTMGNDNNQFSRLKFIEQWRINKEKRKQQALSANINPTPFNARISMTAPLTPQQQLLQRQQQALEQQQNGGAMKNANKRSGNNATSNNNNNNNNLDKPKVKRPRKNAKKSESGTPAPKKKRMTKKKQSASSTPSSTTMS
notes: Spt20, S. cerevisiae, full length band in the TAP-Ada2 purification; source: endogenous, S. cerevisiae lysate
With B1 the “fold decrease of full length Spt20 in the TAP-Ada2 pull down, tra1 Q3 strain against the wild-type strain” value (TAP-tagged Ada2) was 2.1 fold.
